{"source": "paper PMC11830004", "about": "“In situ and in vitro cryo-EM reveal structures of mycobacterial encapsulin assembly intermediates” (Communications Biology, 2025)", "proteins": {"B1": {"name": "Mycobacterium tuberculosis encapsulin shell protein (Enctb) (natural protein)", "chain": "MNNLYRDLAPVTEAAWAEIELEAARTFKRHIAGRRVVDVSDPGGPVTAAVSTGRLIDVKAPTNGVIAHLRASKPLVRLRVPFTLSRNEIDDVERGSKDSDWEPVKEAAKKLAFVEDRTIFEGYSAASIEGIRSASSNPALTLPEDPREIPDVISQALSELRLAGVDGPYSVLLSADVYTKVSETSDHGYPIREHLNRLVDGDIIWAPAIDGAFVLTTRGGDFDLQLGTDVAIGYASHDTDTVRLYLQETLTFLCYTAEASVALSH", "notes": "also called Rv0798c; copies: 60"}}, "molecular_target": "the molecule itself", "assay": "cryo-EM structure", "note": "Where “and” joins values, the source holds several entries; their conditions need not be identical. Equal entries are not always repeated."}
{"protein": "B1", "values": [{"measurement": "stoichiometry N", "value": "60 and 48 and 52 and 54"}]}
